Laboratory results published in patent publication US20250352576A1 (University of California, published 2025).
Values belong to the binder of their own block, whether it stands above or below them.

Molecular target: T1, HLA-A*02:01 on TAP deficient T2 cells (human)
T1 construct: whole, on cells; Endogenous HLA class I of T2 cells, detected with the pan HLA antibody W6/32
Test: T2 cell HLA stabilization assay, flow cytometry with pan HLA antibody W6/32
Method: HLA-A*02:01 TAP deficient T2 cells (2×10⁵ in 200 μL) were incubated with peptides (25 μg per ml in 10% DMSO in PBS) in AIM-V plus 1% human serum at 25° C. overnight to facilitate peptide binding by reducing HLA turnover. The following day the cells were returned to 37° C. for 5 hours then stained with a pan HLA antibody (FITC-conjugated HLA, B, C; clone W6/32). HLA class I expression was measured by flow cytometry, and the percent increase in mean fluorescence intensity over cells incubated with 10% DMSO alone was calculated.

- binding result: binds
B1: SMLEKTALL peptide (Sfxn5/SFXN5 alternative splicing variant) (peptide)
peptide: SMLEKTALL
notes: Peptide added to T2 cells at 25 ug per ml; also called one of the SYY peptides; candidate therapeutic peptide

- binding result: binds
B2: YMYNKVAVL peptide (Atl2/ATL2 alternative splicing variant) (peptide)
peptide: YMYNKVAVL
notes: as for B1
